Experiments:
VCP = target: T1, VCP (Mus musculus, UniProt Q01853); experiment: Co-immunoprecipitation of bOVA with anti-VCP; assay type: binding
T1 construct: endogenous in cells; host or cells: DC2.4 mouse dendritic cell line; bone marrow-derived dendritic cells
Method: (§1) 2×10^7 DC2.4 or BMDC cells were cultured for four hours in a medium containing 10 μM MG-132 in the presence of bOVA at 250 μg mL^−1. Cells were lysed in 20 mM HEPES pH7.6 containing 1% digitonin and protease inhibitors to collect biotin-labeled samples. The samples were cleared of impurities in advance using protein G sepharose (Amersham Pharmacia Biotech), and after incubation with antibodies for precipitation (anti-Sec61β, anti Sec61α, anti-VCP, anti-BiP, anti-PDI, anti-calreticulin, anti-TAP1, and anti-TAP2), the immunoprecipitates were collected using protein G. When chicken anti-CHIP antibody was used, immunoprecipitates were collected using a rabbit anti-IgY column (a person, MBL). The precipitated samples were analyzed by SDS-PAGE and Western blotting.

BiP = target: T2, BiP (Mus musculus, UniProt P20029); experiment: Co-immunoprecipitation of bOVA with anti-BiP; assay type: binding; conditions: DC2.4 cells incubated with bOVA
T2 construct: BiP, an endogenous ER protein, was detected in the same microsomal fraction; endogenous in cells; host or cells: DC2.4 mouse dendritic cell line
T2 sequence (P20029 20-655): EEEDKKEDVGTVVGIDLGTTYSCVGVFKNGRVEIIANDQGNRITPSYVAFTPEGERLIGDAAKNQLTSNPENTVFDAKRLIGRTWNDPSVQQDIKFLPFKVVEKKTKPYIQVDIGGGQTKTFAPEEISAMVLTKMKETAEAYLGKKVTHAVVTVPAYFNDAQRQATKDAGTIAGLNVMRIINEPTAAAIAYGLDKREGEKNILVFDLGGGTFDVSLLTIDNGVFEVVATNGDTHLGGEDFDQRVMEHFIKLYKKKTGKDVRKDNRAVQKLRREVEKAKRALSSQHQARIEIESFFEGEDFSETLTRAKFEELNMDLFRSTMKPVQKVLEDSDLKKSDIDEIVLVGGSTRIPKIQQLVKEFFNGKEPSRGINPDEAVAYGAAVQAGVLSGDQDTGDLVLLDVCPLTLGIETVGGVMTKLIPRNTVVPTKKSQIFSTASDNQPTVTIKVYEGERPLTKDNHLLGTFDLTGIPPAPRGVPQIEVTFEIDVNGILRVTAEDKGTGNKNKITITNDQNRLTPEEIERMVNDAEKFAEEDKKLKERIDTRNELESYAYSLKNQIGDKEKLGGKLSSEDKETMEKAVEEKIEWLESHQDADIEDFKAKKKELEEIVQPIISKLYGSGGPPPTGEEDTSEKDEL
Method: as §1

PDI = target: T3, PDI (Mus musculus, UniProt P09103); experiment: Co-immunoprecipitation of bOVA with anti-PDI; assay type: binding; conditions: DC2.4 cells incubated with bOVA
T3 construct: Three types of ER resident proteins; endogenous in cells; host or cells: DC2.4 mouse dendritic cell line
T3 sequence (P09103 20-509): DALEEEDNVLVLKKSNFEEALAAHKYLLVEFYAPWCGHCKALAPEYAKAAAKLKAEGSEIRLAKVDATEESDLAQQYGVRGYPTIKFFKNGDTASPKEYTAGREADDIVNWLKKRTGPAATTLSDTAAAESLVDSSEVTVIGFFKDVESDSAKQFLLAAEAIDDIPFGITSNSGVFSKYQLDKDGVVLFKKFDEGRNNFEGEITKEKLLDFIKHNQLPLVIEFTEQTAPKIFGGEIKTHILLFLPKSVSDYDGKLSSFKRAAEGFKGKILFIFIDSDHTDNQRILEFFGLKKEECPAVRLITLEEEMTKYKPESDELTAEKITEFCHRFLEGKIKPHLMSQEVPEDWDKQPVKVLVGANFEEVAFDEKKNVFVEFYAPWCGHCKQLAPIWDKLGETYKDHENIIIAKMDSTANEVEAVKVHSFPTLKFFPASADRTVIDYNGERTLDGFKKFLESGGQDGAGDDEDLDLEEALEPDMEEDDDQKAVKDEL
Method: as §1

DC2.4 cells [1] = experiment: Polyubiquitination of antigen taken up by DC2.4 cells (Western blot, anti-polyubiquitin antibody); assay type: cell-based, mouse; conditions: CHIP-knocked-down DC2.4 (C4) vs parental DC2.4
DC2.4 cells [2] = experiment: Uptake of antigen into DC2.4 cells; assay type: cell-based, mouse; conditions: CHIP-knocked-down DC2.4 (C4 and C4F-1)
Excerpt: When CHIP-knocked-down DC2.4 cells (C4 and C4F-1) were produced to examine the polyubiquitination of bOVA when CHIP is knocked down, the uptake of bOVA into the CHIP-knocked-down DC2.4 cells was only about 70% that of uptake into the parental DC2.4 cells (FIGS. 4d and 4f). Despite this fact, polyubiquitination of bOVA was reduced to 34% in CHIP-knocked-down cells (FIG. 4f). The decrease in the amount of accumulated OVA was slowed down in CHIP-knocked-down cells (FIGS. 4d and 4e).
Next, DC2.4 cells were incubated for a set amount of time with OVA in the presence or absence of lactacystin (LC), and OVA taken up into the cells was measured. OVA taken up into cells in the presence or absence of Hsp90 was measured similarly.

DC2.4 cells [3] = system: DC2.4 cells
Method: Intracellular localization of foreign antigens was examined by cell fractionation methods. Chicken ovalbumin (OVA) was used as an antigen model, and DC2.4 (haplotype H-2 Kb), a cultured cell line of mouse dendritic cells, was used as a model for dendritic cells. […] BMDCs with a haplotype of H-2 Kb, the same as that of DC2.4, were used as the control. BMDCs were induced from the bone marrow cells of C57BL/6 mice (SLC) in RPMI-1640 supplemented with 5% FCS using 5 ng/mL GM-CSF (MBL), and those cells purified by magnetic beads after five days of culturing were used.
DC2.4 cells made to take up bOVA antigens were suspended in 10 mM Tris-HCl (pH7.4) containing 250 mM sucrose, this was homogenized using glass beads, centrifuged for 30 minutes at 250,000×g, and then fractionated. The supernatant was used as the soluble fraction; the precipitates were suspended in the same buffer as described above and used as the microsomal fraction. A fixed amount was incubated in the presence or absence of 1% TritonX-100, and together with or without 100 μg mL^−1 trypsin. Before collecting bOVA, soybean trypsin inhibitor (Sigma) was added at 500 μg mL^−1.

T1 sequence (Q01853 2-806 limits assumed): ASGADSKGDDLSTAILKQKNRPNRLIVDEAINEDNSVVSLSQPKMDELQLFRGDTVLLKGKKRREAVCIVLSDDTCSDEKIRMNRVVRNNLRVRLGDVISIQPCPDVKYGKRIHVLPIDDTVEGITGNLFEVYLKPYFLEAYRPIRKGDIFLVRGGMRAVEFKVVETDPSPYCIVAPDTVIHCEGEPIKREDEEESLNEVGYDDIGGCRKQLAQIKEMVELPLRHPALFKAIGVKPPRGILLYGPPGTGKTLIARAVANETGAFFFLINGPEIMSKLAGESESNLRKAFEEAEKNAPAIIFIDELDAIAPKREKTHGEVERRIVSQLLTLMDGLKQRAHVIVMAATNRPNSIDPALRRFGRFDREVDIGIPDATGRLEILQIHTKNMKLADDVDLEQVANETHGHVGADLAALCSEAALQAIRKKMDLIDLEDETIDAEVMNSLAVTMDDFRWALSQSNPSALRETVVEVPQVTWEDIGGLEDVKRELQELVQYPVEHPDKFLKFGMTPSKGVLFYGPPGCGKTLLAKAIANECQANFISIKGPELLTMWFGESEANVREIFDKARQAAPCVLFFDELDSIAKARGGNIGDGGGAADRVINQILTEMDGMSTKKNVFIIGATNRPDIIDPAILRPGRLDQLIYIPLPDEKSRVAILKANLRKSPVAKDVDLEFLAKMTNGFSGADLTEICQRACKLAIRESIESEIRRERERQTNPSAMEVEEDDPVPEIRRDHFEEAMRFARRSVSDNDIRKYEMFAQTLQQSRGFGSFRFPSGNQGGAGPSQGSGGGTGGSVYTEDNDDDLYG

interaction with VCP (co-immunoprecipitation) (VCP; BMDCs): interacts
interaction with VCP (co-immunoprecipitation) (VCP; DC2.4 cells incubated with bOVA): interacts
interaction with BiP (co-immunoprecipitation) (BiP): interacts
B1: bOVA: biotin-labeled OVA antigen (protein)
chain: GSIGAASMEFCFDVFKELKVHHANENIFYCPIAIMSALAMVYLGAKDSTRTQINKVVRFDKLPGFGDSIEAQCGTSVNVHSSLRDILNQITKPNDVYSFSLASRLYAEERYPILPEYLQCVKELYRGGLEPINFQTAADQARELINSWVESQTNGIIRNVLQPSSVDSQTAMVLVNAIVFKGLWEKAFKDEDTQAMPFRVTEQESKPVQMMYQIGLFRVASMASEKMKILELPFASGTMSMLVLLPDEVSGLEQLESIINFEKLTEWTSSNVMEERKIKVYLPRMKMEEKYNLTSVLMAMGITDVFSSSANLSGISSAESLKISQAVHAAHAEINEAGREVVGSAEAGVDAASVSEEFRADHPFLFCIKHIATNAVLFFGRCVSP
interaction with PDI (co-immunoprecipitation) (PDI): interacts
polyubiquitination of bOVA in CHIP-knocked-down cells (DC2.4 cells [1]): 34%
uptake of bOVA into CHIP-knocked-down cells relative to parental DC2.4 cells (DC2.4 cells [2]): about 70%
bOVA taken up by cells recovered as trypsin-resistant bOVA from the microsomal fraction (DC2.4 cells [3]): ≥ 70%

Source: patent US20080064048A1, “Methods for Selecting Proteins that are Readily Presented as Antigens on Dendritic Cells” (Medical and Biological Laboratories, Co., Ltd., priority 2004, published 2008)
